Measured values reported in patent publication US20180250364A1, “Methods of Using Interleukin-10 for Treating Diseases and Disorders” (published 2018).

T1: mIL-10 receptors (R1 and R2) (mouse, UniProt Q61727)
T1 sequence 1: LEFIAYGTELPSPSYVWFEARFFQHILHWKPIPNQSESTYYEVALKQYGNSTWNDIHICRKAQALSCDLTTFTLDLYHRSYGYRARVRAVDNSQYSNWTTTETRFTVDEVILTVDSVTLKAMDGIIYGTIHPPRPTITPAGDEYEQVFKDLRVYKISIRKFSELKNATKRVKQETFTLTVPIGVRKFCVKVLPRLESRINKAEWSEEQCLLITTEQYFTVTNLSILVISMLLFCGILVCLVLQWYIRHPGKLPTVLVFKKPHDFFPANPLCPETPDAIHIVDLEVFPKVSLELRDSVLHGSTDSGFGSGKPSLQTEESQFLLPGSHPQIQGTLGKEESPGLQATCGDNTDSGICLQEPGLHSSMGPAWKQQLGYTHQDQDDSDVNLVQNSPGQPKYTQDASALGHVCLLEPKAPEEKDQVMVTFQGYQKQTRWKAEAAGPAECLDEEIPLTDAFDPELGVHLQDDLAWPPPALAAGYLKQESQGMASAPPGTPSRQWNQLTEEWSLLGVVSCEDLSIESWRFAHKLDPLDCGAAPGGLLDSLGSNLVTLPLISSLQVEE
T1 sequence 2: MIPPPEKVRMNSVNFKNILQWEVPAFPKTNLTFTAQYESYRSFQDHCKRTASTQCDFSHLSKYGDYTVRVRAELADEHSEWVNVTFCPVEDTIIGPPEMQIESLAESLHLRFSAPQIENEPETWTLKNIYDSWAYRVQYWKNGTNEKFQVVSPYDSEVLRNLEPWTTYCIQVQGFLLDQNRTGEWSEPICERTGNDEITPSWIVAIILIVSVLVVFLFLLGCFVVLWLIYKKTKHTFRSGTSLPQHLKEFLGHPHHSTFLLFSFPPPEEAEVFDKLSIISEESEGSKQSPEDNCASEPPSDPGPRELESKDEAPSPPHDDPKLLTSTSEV


Key:
[1] = target: T1, mIL-10 receptors (R1 and R2); test: cell-based or functional assay
[2] = target: T1, mIL-10 receptors (R1 and R2); test: cell-based or functional assay; remark: listed apart in the source

Row | EC50 (ng/mL) in MC/9 Assay [1] [ng/mL] | MC/9 proliferation (Alamar Blue), specific activity [2] [fold] | Binder
1 | 0.571 |  | Murine IL-10 (ligand) SRGQYSREDNNCTHFPVGQSHMLLELRTAFSQVKTFFQTKDQLDNILLTDSLMQDFKGYLGCQALSEMIQFYLVEVMPQAEKHGPEIKEHLNSLGEKLKTLRMRLRRCHRFLPCENKSKAVEQVKSDFNKLQDQGVYKAMNEFDIFINCIEAYMMIKMKS
2 | 4.04 | ~7 | PEG-mIL-10 (ligand, pegylated; prepared with the SC-PEG-12K linker; attachment residue not stated) SRGQYSREDNNCTHFPVGQSHMLLELRTAFSQVKTFFQTKDQLDNILLTDSLMQDFKGYLGCQALSEMIQFYLVEVMPQAEKHGPEIKEHLNSLGEKLKTLRMRLRRCHRFLPCENKSKAVEQVKSDFNKLQDQGVYKAMNEFDIFINCIEAYMMIKMKS
